Experimental data published in patent US20200377590A1 (Hoffmann-La Roche, published 2020).
Numbering of substitutions follows the chain as printed. Blank lines part the entries; values can stand above or below the binder they belong to.

Target: T1, CD81 (UniProt P60033 1-236, limits assumed)
T1 construct: whole, on cells; also called CD81 receptor
T1 sequence (looked up): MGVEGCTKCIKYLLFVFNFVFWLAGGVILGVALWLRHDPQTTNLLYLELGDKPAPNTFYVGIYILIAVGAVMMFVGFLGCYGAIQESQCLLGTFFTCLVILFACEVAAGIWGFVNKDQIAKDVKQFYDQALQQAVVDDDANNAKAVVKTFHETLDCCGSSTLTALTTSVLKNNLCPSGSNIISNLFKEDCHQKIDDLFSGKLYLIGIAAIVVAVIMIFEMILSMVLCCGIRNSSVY
Assay: cell ELISA;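 further: antibody binding to HuH7 cells expressing CD81 versus a CD81-negative HuH7 control line, bound antibody detected by secondary reagent, absorbance at 450 nm with 620 nm reference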
Description: For the binding cell ELISA assay, HuH7-Rluc-H3 (positive cell line expressing CD81) and HuH7-Rluc-L1 (negative control cell line) were propagated in F-12 DMEM medium with 10% FCS at 37° C. and 5% CO₂. On day 1, the cells were trypsinized at approximately 90% confluence and resuspended at 4×10⁵ cells/mL. […] On day 2, the antibody samples to be tested were prepared in a separate polypropylene round bottom plate with a twofold desired concentration with a final volume of 120 μl. All of the assay samples were diluted in cell culture medium. […] After fixation, each well was washed 3 times with 200 μL PBS/0.05% Tween. The secondary incubation step for detection of bound anti-CD81 antibodies was performed for 2 h at room temperature on a reciprocal shaker. […] Each well was washed three times with 200 μL PBS/0.05% Tween to remove unbound antibodies. […] The absorbance was read using the ELISA Tecan reader at 450 nm with 620 nm reference wavelength.

ELISA data: 0.3
B1: CD81K04 HC JA_GG-15-hVH_1_3 / LC GG-04-hVK_4_1 (antibody, V domains shown)
VH: QVQLVQSGAEVKKPGASVKVSCKASGYTFSSSWMNWVRQAPGQRLEWMGRIYSGDGDAIYNGKFKGRVTITADTSASTAYMELSSLRSEDTAVYYCAREGKTGDLLLRSWGQGTLVTVSS
VL: DIVMTQSPDSLAVSLGERATINCKSSKSVSTSIYSYLAWYQQKPGQPPKLLIYYASTRESGVPDRFSGSGSGTDFTLTISSLQAEDVAVYYCQHSREFPYTFGQGTKLEIK
notes: human constant region

ELISA data: 0.229
B2: CD81K04 HC GG-02-hVH_1_69 / LC GG-05-hVK_3_11 (antibody, V domains shown)
VH: B1 VH with A16S, R44G, G62Q, K65Q, T74E, A76T
VL: EIVLTQSPATLSLSPGERATLSCRASKSVSTSIYSYLHWYQQKPGQAPRLLIYYASNRETGIPARFSGSGSGTDFTLTISSLEPEDFAVYYCQHSREFPFTFGQGTKLEIK
notes: human constant region

ELISA data: 0.08
B3: CD81K04 HC GG-02-hVH_1_69 / LC GG-06-hVK_1_39 (antibody, V domains shown)
VH: B1 VH with A16S, R44G, G62Q, K65Q, T74E, A76T
VL: DIQMTQSPSSLSASVGDRVTITCRASKSVSTSIYSYLNWYQQKPGKAPKLLIYYASYLQSGVPSRFSGSGSGTDFTLTISSLQPEDFATYYCQHSREFPYTFGQGTKLEIK
notes: human constant region

ELISA data: 0.13
B4: CD81K04 HC GG-02-hVH_1_69 / LC JA_GG-07-hVK_7_3 (antibody, V domains shown)
VH: B1 VH with A16S, R44G, G62Q, K65Q, T74E, A76T
VL: DIVLTQSPASLAVSPGQRATITCRASKSVSTSIYSYMHWYQQKPGQPPKLLIKYASNKDTGVPARFSGSGSGTDFTLTINPVEANDAANYYCLHSREFPYTFGQGTKLEIK
notes: human constant region

ELISA data: 0.161
B5: CD81K04 HC JA_GG-16-hVH_1_3 / LC JA_GG-07-hVK_7_3 (antibody, V domains shown)
VH: B1 VH with R44G
VL: B4 VL
notes: human constant region

ELISA data: 0.204
B6: CD81K04 HC GG-03-hVH_1_69 / LC GG-05-hVK_3_11 (antibody, V domains shown)
VH: B1 VH with A16S, R44G, N61A, G62Q, K65Q, T74E, A76T
VL: B2 VL
notes: human constant region

ELISA data: 0.12
B7: CD81K04 HC GG-04-hVH_1_69 / LC JA_GG-07-hVK_7_3 (antibody, V domains shown)
VH: B1 VH with A16S, R44G, G62Q, K65Q, V68A, T74E, A76T
VL: B4 VL
notes: human constant region

ELISA data: 0.064
B8: CD81K04 HC GG-03-hVH_1_69 / LC GG-06-hVK_1_39 (antibody, V domains shown)
VH: B1 VH with A16S, R44G, N61A, G62Q, K65Q, T74E, A76T
VL: B3 VL
notes: human constant region

ELISA data: 0.263
B9: CD81K04 HC JA_GG-16-hVH_1_3 / LC GG-04-hVK_4_1 (antibody, V domains shown)
VH: B1 VH with R44G
VL: B1 VL
notes: human constant region

ELISA data: 0.152
B10: CD81K04 HC K04_JA-13-hVH_1_3 / LC GG-04-hVK_4_1 (antibody, V domains shown)
VH: B1 VH with A72R
VL: B1 VL
notes: human constant region

ELISA data: 0.403
B11: CD81K04 HC JA_GG-14-hVH_1_69 / LC GG-05-hVK_3_11 (antibody, V domains shown)
VH: B1 VH with A16S, R44G, R67K, V68A, T74E, A76T
VL: B2 VL
notes: human constant region

ELISA data: 0.437
B12: CD81K04 HC JA_GG-16-hVH_1_3 / LC GG-03-hVK_4_1 (antibody, V domains shown)
VH: B1 VH with R44G
VL: B1 VL with T57Y, Y100F
notes: human constant region

ELISA data: 0.993
B13: CD81K04 HC JA_GG-15-hVH_1_3 / LC JA_GG-08-hVK_4_1 (antibody, V domains shown)
VH: B1 VH
VL: B1 VL with L37M, A38H, Y53K, T57Y, R58L, Q93E, Y100F
notes: human constant region

ELISA data: 0.936
B14: CD81K04 HC JA_GG-15-hVH_1_3 / LC JA_GG-09-hVK_4_1 (antibody, V domains shown)
VH: B1 VH
VL: B1 VL with L37M, A38H, Y53K, Q93E, Y100F
notes: human constant region

ELISA data: 0.262
B15: CD81K04 HC JA_GG-15-hVH_1_3 / LC JA_GG-07-hVK_7_3 (antibody, V domains shown)
VH: B1 VH
VL: B4 VL
notes: human constant region

ELISA data: 0.352
B16: CD81K04 HC GG-04-hVH_1_69 / LC GG-05-hVK_3_11 (antibody, V domains shown)
VH: B1 VH with A16S, R44G, G62Q, K65Q, V68A, T74E, A76T
VL: B2 VL
notes: human constant region

ELISA data: 0.941
B17: CD81K04 HC K04_JA_GG-17-hVH_1_3 / LC JA_GG-08-hVK_4_1 (antibody, V domains shown)
VH: B1 VH with A58T, N61S, G62Q, K65Q
VL: B1 VL with L37M, A38H, Y53K, T57Y, R58L, Q93E, Y100F
notes: human constant region

ELISA data: 0.709
B18: CD81K04 HC K04_JA_GG-17-hVH_1_3 / LC GG-02-hVK_4_1 (antibody, V domains shown)
VH: B1 VH with A58T, N61S, G62Q, K65Q
VL: B1 VL with L37M, A38H, T57Y, Y100F
notes: human constant region

ELISA data: 0.56
B19: CD81K04 HC K04_JA-13-hVH_1_3 / LC GG-05-hVK_3_11 (antibody, V domains shown)
VH: B1 VH with A72R
VL: B2 VL
notes: human constant region

ELISA data: 0.14
B20: CD81K04 HC GG-05-hVH_1_18 / LC JA_GG-07-hVK_7_3 (antibody, V domains shown)
VH: B1 VH with R44G, N61A, G62Q, F64L, K65Q, I70M, A72T, A76T, S84R, E89D
VL: B4 VL
notes: human constant region

ELISA data: 0.423
B21: CD81K04 HC K04_JA-13-hVH_1_3 / LC GG-03-hVK_4_1 (antibody, V domains shown)
VH: B1 VH with A72R
VL: B1 VL with T57Y, Y100F
notes: human constant region

ELISA data: 0.696
B22: CD81K04 HC JA_GG-14-hVH_1_3 / LC GG-05-hVK_3_11 (antibody, V domains shown)
VH: B1 VH with R44G, V68A
VL: B2 VL
notes: human constant region

ELISA data: 0.88
B23: CD81K04 HC JA_GG-16-hVH_1_3 / LC JA_GG-10-hVK_4_1 (antibody, V domains shown)
VH: B1 VH with R44G
VL: B1 VL with K24R, S25A, L37M, A38H, Y53K, T57Y, R58L, Q93E, Y100F
notes: human constant region

ELISA data: 0.149
B24: CD81K04 HC GG-05-hVH_1_18 / LC GG-06-hVK_1_39 (antibody, V domains shown)
VH: B1 VH with R44G, N61A, G62Q, F64L, K65Q, I70M, A72T, A76T, S84R, E89D
VL: B3 VL
notes: human constant region

ELISA data: 0.855
B25: CD81K04 HC K04_JA_GG-17-hVH_1_3 / LC JA_GG-10-hVK_4_1 (antibody, V domains shown)
VH: B1 VH with A58T, N61S, G62Q, K65Q
VL: B1 VL with K24R, S25A, L37M, A38H, Y53K, T57Y, R58L, Q93E, Y100F
notes: human constant region

ELISA data: 1.08
B26: CD81K04 HC JA_GG-16-hVH_1_3 / LC JA_GG-09-hVK_4_1 (antibody, V domains shown)
VH: B1 VH with R44G
VL: B1 VL with L37M, A38H, Y53K, Q93E, Y100F
notes: human constant region

ELISA data: 0.154
B27: CD81K04 HC JA_GG-14-hVH_1_3 / LC JA_GG-07-hVK_7_3 (antibody, V domains shown)
VH: B1 VH with R44G, V68A
VL: B4 VL
notes: human constant region

ELISA data: 0.699
B28: CD81K04 HC JA_GG-15-hVH_1_3 / LC GG-05-hVK_3_11 (antibody, V domains shown)
VH: B1 VH
VL: B2 VL
notes: human constant region

ELISA data: 0.861
B29: CD81K04 HC K04_JA-13-hVH_1_3 / LC JA_GG-10-hVK_4_1 (antibody, V domains shown)
VH: B1 VH with A72R
VL: B1 VL with K24R, S25A, L37M, A38H, Y53K, T57Y, R58L, Q93E, Y100F
notes: human constant region

ELISA data: 0.911
B30: CD81K04 HC K04_JA_GG-17-hVH_1_3 / LC JA_GG-09-hVK_4_1 (antibody, V domains shown)
VH: B1 VH with A58T, N61S, G62Q, K65Q
VL: B1 VL with L37M, A38H, Y53K, Q93E, Y100F
notes: human constant region

ELISA data: 0.067
B31: CD81K04 HC GG-04-hVH_1_69 / LC GG-06-hVK_1_39 (antibody, V domains shown)
VH: B1 VH with A16S, R44G, G62Q, K65Q, V68A, T74E, A76T
VL: B3 VL
notes: human constant region

ELISA data: 0.376
B32: CD81K04 HC JA_GG-14-hVH_1_69-GA / LC GG-05-hVK_3_11 (antibody, V domains shown)
VH: B1 VH with A16S, R44G, R67K, V68A, T74E, A76T
VL: B2 VL
notes: human constant region

ELISA data: 0.087
B33: CD81K04 HC JA_GG-13-hVH_1_69 / LC JA_GG-07-hVK_7_3 (antibody, V domains shown)
VH: B1 VH with A16S, Y27G, R44G, N61A, G62Q, K65Q, T74E, A76T
VL: B4 VL
notes: human constant region

ELISA data: 0.091
B34: CD81K04 HC GG-03-hVH_1_69 / LC JA_GG-07-hVK_7_3 (antibody, V domains shown)
VH: B1 VH with A16S, R44G, N61A, G62Q, K65Q, T74E, A76T
VL: B4 VL
notes: human constant region

ELISA data: 0.915
B35: CD81K04 HC JA_GG-15-hVH_1_3 / LC JA_GG-10-hVK_4_1 (antibody, V domains shown)
VH: B1 VH
VL: B1 VL with K24R, S25A, L37M, A38H, Y53K, T57Y, R58L, Q93E, Y100F
notes: human constant region

ELISA data: 0.189
B36: CD81K04 HC K04_JA_GG-17-hVH_1_3 / LC GG-04-hVK_4_1 (antibody, V domains shown)
VH: B1 VH with A58T, N61S, G62Q, K65Q
VL: B1 VL
notes: human constant region

ELISA data: 0.255
B37: CD81K04 HC K04_JA-13-hVH_1_3 / LC JA_GG-07-hVK_7_3 (antibody, V domains shown)
VH: B1 VH with A72R
VL: B4 VL
notes: human constant region

ELISA data: 0.219
B38: CD81K04 HC K04_JA_GG-17-hVH_1_3 / LC JA_GG-07-hVK_7_3 (antibody, V domains shown)
VH: B1 VH with A58T, N61S, G62Q, K65Q
VL: B4 VL
notes: human constant region

ELISA data: 0.228
B39: CD81K04 HC JA_GG-13-hVH_1_69 / LC GG-05-hVK_3_11 (antibody, V domains shown)
VH: B1 VH with A16S, Y27G, R44G, N61A, G62Q, K65Q, T74E, A76T
VL: B2 VL
notes: human constant region

ELISA data: 0.985
B40: CD81K04 HC K04_JA-13-hVH_1_3 / LC JA_GG-08-hVK_4_1 (antibody, V domains shown)
VH: B1 VH with A72R
VL: B1 VL with L37M, A38H, Y53K, T57Y, R58L, Q93E, Y100F
notes: human constant region

ELISA data: 0.596
B41: CD81K04 HC JA_GG-16-hVH_1_3 / LC GG-02-hVK_4_1 (antibody, V domains shown)
VH: B1 VH with R44G
VL: B1 VL with L37M, A38H, T57Y, Y100F
notes: human constant region

ELISA data: 0.631
B42: CD81K04 HC JA_GG-16-hVH_1_3 / LC GG-05-hVK_3_11 (antibody, V domains shown)
VH: B1 VH with R44G
VL: B2 VL
notes: human constant region

ELISA data: 0.864
B43: CD81K04 HC K04_JA-13-hVH_1_3 / LC JA_GG-09-hVK_4_1 (antibody, V domains shown)
VH: B1 VH with A72R
VL: B1 VL with L37M, A38H, Y53K, Q93E, Y100F
notes: human constant region

ELISA data: 0.475
B44: CD81K04 HC K04_JA-13-hVH_1_3 / LC GG-02-hVK_4_1 (antibody, V domains shown)
VH: B1 VH with A72R
VL: B1 VL with L37M, A38H, T57Y, Y100F
notes: human constant region
